Test [1] deals with T1, Human Pancreatic Lipase (human, UniProt P16233 17-465, in ELISA and phage selections: biotin (EZ link NHS-biotin) on free NH2-groups, molar ratio biotin to lipase 15 to 1; not biotinylated in the enzyme activity assay).
T1 construct: mature; Natural enzyme purified from a human source; In ELISA it was captured as biotinylated HPL on coated streptavidin; also called HPL; biotinylated HPL
T1 sequence (looked up): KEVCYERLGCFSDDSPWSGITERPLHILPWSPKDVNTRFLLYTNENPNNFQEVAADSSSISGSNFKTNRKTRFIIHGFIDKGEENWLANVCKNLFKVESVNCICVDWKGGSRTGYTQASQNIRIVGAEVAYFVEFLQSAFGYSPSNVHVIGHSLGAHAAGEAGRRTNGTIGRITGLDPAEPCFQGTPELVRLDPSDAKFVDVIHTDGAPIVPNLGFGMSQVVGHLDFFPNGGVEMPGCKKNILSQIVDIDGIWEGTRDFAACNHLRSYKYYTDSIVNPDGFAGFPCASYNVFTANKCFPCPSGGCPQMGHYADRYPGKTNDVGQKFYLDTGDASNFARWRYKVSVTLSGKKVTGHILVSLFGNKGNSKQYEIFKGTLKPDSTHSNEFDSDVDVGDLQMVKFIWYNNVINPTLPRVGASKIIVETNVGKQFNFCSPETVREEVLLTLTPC
In words: ELISA, yeast culture medium on biotinylated HPL captured by streptavidin. The procedure:
For ELISA in vitro biotinylated HPL (prepared as described in paragraph 2.2) was immobilised indirectly via streptavidin. Streptavidin was coated at 5 µg/ml in Phosphate Buffered Saline (PBS) during two hours at room temperature in MAXISORB plates (NUNC). The coat solution was removed and, after washing with 0.05 vol % Tween-20 in PBS (PBST), the wells were blocked during 30 minutes at room temperature with a 4 wt % skimmed milk solution made in PBS. Biotinylated HPL was captured by the coated streptavidin during 16 hours at 4° C. from a solution with a concentration of 2.5 µg/ml enzyme in PBST, followed by washing of the plate with PBTS to remove free biotinylated HPL.
Two clones from each construct were grown for 24 hours at 30° C. in YNB medium (0.67% Yeast Nitrogen without amino acids (Difio)) containing 2% glucose. For V_HH gene expression both pre-cultures were diluted 1/10 in 1 ml of YPD medium (1% yeast extract, 2% peptone, 2% glucose, 2% galactose) for induction of the GAL7 promoter and grown during 48 hours at 30° C. using 8 wells culture plates for cultivation. The V_HH production in the medium fraction of these clones was examined by analysis on a Coomassie blue stained polyacrylamide gel. Their functional characteristics were confirmed in ELISA on indirectly immobilised biotinylated HPL and in the lipase enzyme activity assay.

In a further test the target is T2, protein A (UniProt P38507 37-477).
T2 construct: also called protein A sepharose (Pharmacia)
In words: affinity chromatography on protein A sepharose.

Test [2] deals with T1, Human Pancreatic Lipase. As to the kind of experiment: phage display selection in solution with biotinylated HPL, capture on streptavidin beads. The procedure:
Free V_HH fragments were removed by precipitation of phage from the culture supernatant with PEG6000, thereby avoiding a disturbing competition between phage bound and free V_HH fragments. "In solution" capture of *E. coli* phage exposing HPL specific antibody fragments was performed with in vitro biotinylated lipase (EZ link NHS-biotin) covalently coupled to free NH_2-groups of the lipase according to the instructions of the supplier; the molar ratio between biotin and lipase was 15 to 1). For selection 15 nM and 40 nM Human Pancreatic Lipase was used in round one and 0.6 nM and 3 nM in round two. The carboxy terminal domain was prepared by proteolysis with chymotrypsin and purified with reversed phase HPLC. Lipase was biotinylated and used for selection of the immune library (combined short hinge and long hinge) at 15 and 70 nM during round one and at 1 and 3 and 15 nM during round two. During the binding phase of the selection "application conditions" (inclusion of 5.3 mM cholic acid and 36 mM deoxycholate) were used.

Test [3] addresses T1, Human Pancreatic Lipase. As to the kind of experiment: ELISA on biotinylated HPL, E. coli and yeast produced VHH. A general note: ELISA stands for enzyme-linked immunosorbent assay.

The text below walks through data of patent publication US7361741 (LIPTON DIVISION OF CONOPCO, dated 2008).

B1: HPL#19 (VHH)
VHH: QVQLQDSGGGLVQTGGSLRLSCAASGPIGDVYLMGWYRQAPGKQREMVASITATGPPNYTDSVKGRFTISRDNDKNTEYLQMNNLKPEDTAVYYCNAQVRVRFSSDYTNYWGQGTQVTVSSEPKTPKPQP
notes: Llama VHH; E. coli form (pUR5087): with hinge and myc-tag; Yeast forms: PstI/BstEII fragment, untagged (pUR5093) or with myc/His6 tags (pUR5264); also called anti-HPL VHH fragment HPL#19
Turning to B1, the binding result in the test with Human Pancreatic Lipase [1] is given as “binds”; with protein A, “no binding”.

B2: HPL#12 (VHH)
VHH: QVQLQESGGGLVQAGGSLRLSCAASGSIGSIHTMGWYRQTPGKERDVVATIQDGGSTNYADSVKGRFTISRDNTLNTVYLQMNDLKPEDTAVYYCNADVRPYRTSRYLEVWGQGTLVTVSS
notes: Llama VHH produced in E. coli from the phagemid, with hinge and C-terminal myc-tag; also called anti-HPL VHH fragment HPL#12
B2: the binding result with Human Pancreatic Lipase [2] is reported as “binds”.

B3: HPL#14 (VHH)
VHH: QVQLQESGGGLVQAGGSLRLSCAASGSIGSIHTMGWYRQTPGTERDVVATIQDGGSTNYADSVKGRFTISRDNILNTVYLQMNSLKPEDTAVYHCNADVRPYRTSRYLELWGQGTLVTVSS
notes: Llama VHH; Yeast form (pUR5265): PstI/NotI fragment including the hinge region, followed by myc- and hexahistidine tags; also called anti-HPL VHH fragment HPL#14
With B3, the binding result in the test with Human Pancreatic Lipase [1] is listed as “binds”.

B4: HPL#11 (VHH)
VHH: QVQLQDSGGGLVQAGGSLRLSCAASGSIFSSDLMGWYRQAPGKEREAVARITRGGTTSYADSVKGRFTISRDNAKNTMYLQMNSLKPEDTAVYYCNARRSNYDRSWGDYWGQGTQVTVSS
notes: Llama VHH; E. coli form (pUR5084): VHH with hinge and C-terminal myc-tag; Yeast forms: PstI/BstEII VHH fragment, untagged (pUR5091) or with myc-tag and hexahistidine tail (pUR5099); also called anti-HPL VHH fragment HPL#11
For the molecule B4, in the test with Human Pancreatic Lipase [2], the binding result was “binds”.

B5: HPL#18 (VHH)
VHH: QVQLQDSGGGLVQAGGSLRLSCAASGTIGDIYTMAWHRQAPGKERELVASATESGSPNYADPVKGRFTISRDNGKLTVYLQMNSLKPEDTAVYYCNALIRRKFTSEYNEYWGQGTQVTVSS
notes: Llama VHH; E. coli form (pUR5086): with hinge and myc-tag; Yeast forms: PstI/BstEII fragment, untagged (pUR5092) or with myc/His6 tags (pUR5263); also called anti-HPL18; αHPL18
In the case of B5, the binding result in the test with Human Pancreatic Lipase [1] is “binds”.

B6: HPL#13 (VHH)
VHH: QVQLQESGGGLVQAGGSLRLSCAASGTILSIIYMDWYRQTPGKQRELVGRITAGGSTNYADSAKGRFTISKDNAKNTVYLQMNSLKPEDTAVYYCNALITRWDKSVNDYWGQGTQVTVSS
notes: Llama VHH; E. coli form (pUR5082): with hinge and myc-tag; Yeast forms: PstI/BstEII fragment, untagged (pUR5090) or with myc/His6 tags (pUR5098); also called anti-HPL VHH fragment HPL#13
Consider B6, for which the binding result with Human Pancreatic Lipase [3] is “binds”.

B7: HPL#15 (VHH)
VHH: QVQLQESGGGLVQAGGSLRLSCAASGSISSINVMGWFRQAPGKQRELVASITSGGSTNYADSLKGRFTISRDNAKNAVYLQMNNLKPEDTAVYYCNAHITPAGSSNYVYGYWGHGTKVTVSS
notes: Llama VHH; E. coli form (pUR5095): with hinge and myc-tag; Yeast forms: PstI/BstEII fragment, untagged (pUR1403) or with myc/His6 tags (pUR5097); also called anti-HPL VHH fragment HPL#15
With B7, the binding result with Human Pancreatic Lipase [1] is listed as “binds”.
